Like-named read-outs stand apart in the source and are kept apart here.
T1: tvMyb2 40-156 (Trichomonas vaginalis, UniProt Q58HP3 40-156)
T1 sequence: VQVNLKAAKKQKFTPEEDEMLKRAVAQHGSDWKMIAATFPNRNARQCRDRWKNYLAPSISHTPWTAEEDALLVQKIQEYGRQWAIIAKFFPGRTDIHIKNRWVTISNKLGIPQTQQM

B1: MRE-2-13 (dsDNA)
DNA 1: CTGTATCGTCTTG
DNA 2: CAAGACGATACAG
B2: MRE-1-12 (dsDNA)
DNA 1: ATAACGATATTT
DNA 2: AAATATCGTTAT

Experiments:
tvMyb2 40-156 [1] = molecular target: T1, tvMyb2 40-156; test: X-ray crystallography
tvMyb2 40-156 [2] = molecular target: T1, tvMyb2 40-156; test: X-ray crystallography; remark: listed apart in the source

| Binder | binding result (tvMyb2 40-156 [1]) | binding result (tvMyb2 40-156 [2]) |
| --- | --- | --- |
| B1 | binds | – |
| B2 | – | binds |
